Where no end group is shown, it is not given here. [ ]: non-standard residue; d: D form. pS = N[C@@H](COP(=O)(O)O)C(=O)O
How the values were obtained:
[1] = Immunization of AAD transgenic mice with phosphopeptide-pulsed DC; conditions: mouse
human CD8 T-cells = test: IFN-γ ELISpot of human CD8 T-cells cultured 7 days with peptide-pulsed DC; format: cell-based; conditions: for donors with pre-existing memory response: CD45RO+ CD8 T-cells from four donors, 7 days, cutoff >50 spots/25,000 cells; for magnitude of phosphopeptide-specific IFN-γ responses of normal donor T-cells: bulk CD8 T-cells, 7 days with peptide-pulsed autologous DC, restimulated with phosphopeptide-pulsed HLA-A2+ targets
[2] = system: pCDC25b38-46-pulsed C1R-AAD and C1R-A2 targets; test: CD107a / IFN-γ flow cytometry of TCR-electroporated human CD8 T-cells on pCDC25b peptide-pulsed targets; format: cell-based
Procedure: Prior to electroporation, donor T-cells were washed three times in serum-free OPTI-MEM® media (Life Technologies Corporation, Gaithersburg, Md., United States of America) and were suspended at 25×10^6/ml. Cells were mixed with 2 μg IVT RNA of each TCR α and β chain per 10^6 cells and transferred to pre-chilled BTX 2 mm gap cuvettes. Using the BTX T820 electroporation system (BTX Instrument Division, Harvard Apparatus, Inc. Holliston, Mass., United States of America), cells were pulsed at 500V for 0.3 msec. Transfected cells were placed in AIM-V® brand serum-free medium (Life Technologies Corporation, Gaithersburg, Md., United States of America) with 5% AB^+ serum (GEMCELL™; Gemini Bio-Products, West Sacramento, Calif., United States of America) for 8-24 hours and evaluated for TCR expression and functionality.
14-16 hours post-electroporation, phosphopeptide-specific murine TCR-transfected human CD8 T-cells were co-cultured in AIM-V (Life Technologies Corporation, Gaithersburg, Md., United States of America) supplemented with 5% human AB^+ serum (GEMCELL™; Gemini Bio-Products, West Sacramento, Calif., United States of America) with peptide-pulsed or unpulsed C1R-AAD, C1R-A2, or cancer cells endogenously expressing the pIRS-21097-1105 or the pCDC25b38-46 phosphopeptide. Cell surface expression of mouse TCRβ, human CD3, and human CD8 molecules on human CD8 T-cells were assessed using antibodies from either Becton Dickinson Bioscience (San Jose, Calif., United States of America) or eBioScience Inc. (San Diego, Calif., United States of America). […] Cells were then stained for surface molecule expression, fixed and permeabilized using CYTOFIX/CYTOPERM™ (Becton Dickinson Bioscience (San Jose, Calif., United States of America) and stained for intracellular cytokine (anti-IFN-γand anti-TNF-α, eBioScience Inc., San Diego, Calif., United States of America). Immunofluoresence was analyzed using the Becton Dickinson FACSCANTO™ I or FACSCANTO™II flow cytometer and analyzed using FlowJo software (Tree Star, Inc., Ashland, Oreg., United States of America).

AAD+ SLM2 melanoma cells = test: Tumor control after adoptive transfer of TCR-expressing human CD8 T-cells; format: in vivo, NOD/SCID/IL-2Rγc−/− mice
Text: Seven to 8 week old male […] mice (The Jackson Laboratory, Bar Harbor, Me., United States of America) were inoculated subcutaneously with 1.4×10^6 AAD^+ SLM2 melanoma cells. 3×10^6 human CD8 T-cells expressing either pIRS-2- or pCDC25b-specific TCR, or 1.5×10^6 of both populations, were adoptively transferred 3 days later. An additional 1.5×10^6 T-cells were given 4 days later. All mice received 1500 CU of IL-2 (R&D Systems, Inc., Minneapolis, Minn., United States of America) […]. every other day for 10 days. Tumor size was measured every 2-3 days with a digital caliper, and calculated as L×W (mm^2). Tumor free survival is equal to the measurement day when the tumor size was >30 mm^2.
Log-rank (Mantel Cox Test) analysis, Cox proportional hazard modeling, and parametric modeling were performed to determine statistical significance where indicated. p values less than 0.05 were considered significant.

[3] = system: C1R-A2 cells pulsed with 1 μM phosphopeptide; test: In vitro cytotoxicity assay (CFSE); format: cell-based, human; conditions: 5 hours co-culture, pulsed versus unpulsed C1R-A2
Procedure: Phosphopeptide-specific murine TCR-expressing human CD8 T-cells were co-cultured for 5 hours with a 1:1 mix of C1R-A2 cells pulsed with 1 μM phosphopeptide and stained with 1 μM carboxyfluorescein succinimidyl ester (CFSE; Life Technologies) and unpulsed C1R-A2 cells stained with 0.1 μM CFSE. Specific killing was assessed by evaluating percent loss of the peptide-pulsed population relative to the unpulsed population.

[4] = system: HLA-A2+ cancer cell lines; test: CD107a / IFN-γ flow cytometry after co-culture with human cancer cells; format: cell-based
Procedure: 14-16 hours post-electroporation, phosphopeptide-specific murine TCR-transfected human CD8 T-cells were co-cultured in AIM-V (Life Technologies Corporation, Gaithersburg, Md., United States of America) supplemented with 5% human AB^+ serum (GEMCELL™; Gemini Bio-Products, West Sacramento, Calif., United States of America) with peptide-pulsed or unpulsed C1R-AAD, C1R-A2, or cancer cells endogenously expressing the pIRS-21097-1105 or the pCDC25b38-46 phosphopeptide. Cell surface expression of mouse TCRβ, human CD3, and human CD8 molecules on human CD8 T-cells were assessed using antibodies from either Becton Dickinson Bioscience (San Jose, Calif., United States of America) or eBioScience Inc. (San Diego, Calif., United States of America). During a 5 hour co-culture of stimulator cells with phosphopeptide-specific murine TCR-transfected human CD8-T cells at 37° C., anti-human CD107a-Alexa 647 antibody (eBioScience Inc., San Diego, Calif., United States of America) was added in the presence of 5 μg/ml Brefeldin A (SIGMA-ALDRICH® Co. LLC, St. Louis, Mo., United States of America), 5 μg/ml Monensin (eBioScience Inc., San Diego, Calif., United States of America) and 300 IU/ml human IL-2 (Chiron Corporation, Emeryville, Calif., United States of America). Cells were then stained for surface molecule expression, fixed and permeabilized using CYTOFIX/CYTOPERM™ (Becton Dickinson Bioscience (San Jose, Calif., United States of America) and stained for intracellular cytokine (anti-IFN-γand anti-TNF-α, eBioScience Inc., San Diego, Calif., United States of America). Immunofluoresence was analyzed using the Becton Dickinson FACSCANTO™ I or FACSCANTO™II flow cytometer and analyzed using FlowJo software (Tree Star, Inc., Ashland, Oreg., United States of America).
Whether these transfected human CD8 T-cells could recognize endogenously processed and presented pIRS-21097-1105 or pCDC25b38-46 phosphopeptide on HLA-A2^+ cancer cell lines was investigated. To correlate pIRS-21097-1105-specific T-cell recognition with phosphopeptide expression, an antibody specific for the Ser^1100-phosphorylated IRS-2 protein (pSer^1100-IRS-2) as well as an antibody that recognizes total IRS-2 protein (Zarling et al., 2006) were employed. […] These two cell lines also expressed high levels of pSer^1100-IRS-2 (FIG. 4). […] There is no specific antibody for Ser^42-phosphorylated CDC25b.

[5] = system: pIRS-2 pulsed C1R-A2 or C1R-AAD target cells; test: IFN-γ ELISA of TCR-expressing human CD8 T-cells with pulsed C1R-A2 or C1R-AAD targets (pIRS-2); format: cell-based; conditions: 18-20 hours co-culture
Procedure: Human CD8 T-cells were electroporated with IVT RNA encoding murine TCR αβ chains specific for pIRS-2 (pIRS2 BK TCR; FIG. 10A; SEQ ID NO: 2) or pDesmuslin (A10 (right to left hatched boxes) or A11 (left to right hatched boxes) TCR chains; FIG. 10B), and assayed 12-14 hours later. TCR-expressing human CD8 T-cells were co-cultured for 18-20 hours with C1R-A2 or C1R-AAD pulsed or unpulsed target cells. Supernatants were then harvested and IFN-γ was detected by ELISA. No RNA controls underwent electroporation with no addition of IVT RNA (open squares).

[6] = recognized / evaluated cell lines

Molecule: GLLGpSPVRA (GLLG[pS]PVRA; listed as Homo sapiens) [pCDC25b38-46]
- immunogenicity in vivo for HLA-A2 transgenic mice [1]: strongly immunogenic
- immunogenicity in vitro for human T-cells (human CD8 T-cells): strongly immunogenic
- donors with pre-existing memory response (human CD8 T-cells): all four and four
- magnitude of phosphopeptide-specific IFN-γ responses of normal donor T-cells (human CD8 T-cells): surprisingly high

Molecule: RVApSPTSGV (RVA[pS]PTSGV; listed as Homo sapiens) [pIRS-21097-1105]
- immunogenicity in vivo for HLA-A2 transgenic mice [1]: strongly immunogenic
- immunogenicity in vitro for human T-cells (human CD8 T-cells): strongly immunogenic
- donors with pre-existing memory response (human CD8 T-cells): 2/4
- magnitude of phosphopeptide-specific IFN-γ responses of normal donor T-cells (human CD8 T-cells): surprisingly high

B1: pCDC25b-specific TCR: murine TCR binding GLLGpSPVRA/HLA-A2; α chain SEQ ID NO: 14, β chain SEQ ID NO: 16; tested expressed in human CD8 T-cells (protein, listed as Mus musculus)
alpha: MKTVTGPLFLCFWLQLNCVSRGEQVEQRPPHLSVREGDSAVIICTYTDPNSYYFFWYKQEPGAGLQLLMKVFSSTEINEGQGFTVLLNKKDQQLSLNLTAAHPGDSAVYFCAVKPGGYKVVFGSGTRLLVSPDIQNPEPAVYQLKDPRSQDSTLCLFTDFDSQINVPKTMESGTFITDKTVLDMKAMDSKSNGAIAWSNQTSFTCQDIFKETNATYPSSDVPCDATLTEKSFETDMNLNFQNLSVMGLRILLLKVAGFNLLMTLRLWSS
beta: MSNTAFPDPAWNTTLLSWVALFLLGTKHMEAAVTQSPRNKVAVTGGKVTLSCNQTNNHNNMYWYRQDTGHGLRLIHYSYGAGSTEKGDIPDGYKASRPSQENFSLILELATPSQTSVYFCASGGDTQYFGPGTRLLVLEDLRNVTPPKVSLFEPSKAEIANKQKATLVCLARGFFPDHVELSWWVNGKEVHSGVSTDPQAYKERNYSYCLSSRLRVSATFWHNPRNHFRCQVQFHGLSEEDKWPEGSPKPVTQNISAEAWGRADCGITSASYHQGVLSATILYEILLGKATLYAVLVSGLVLMAMVKKKNS
- recognition of phosphopeptide-pulsed targets expressing HLA-A2 compared with AAD [2]: at least as well as those expressing AAD
- response to HLA-A2+ targets pulsed with high levels of the non-phosphorylated peptide ([2]; IFN-γ / CD107a): Neither cell produced IFN-γ or upregulated CD107a
- EC50 ([2]; human CD8 T-cells electroporated with TCR IVT RNA, phosphopeptide-pulsed AAD+ targets, IFN-γ / CD107a, read-out: peptide dose for half-maximal recognition): 0.4 to 0.8 nM
- tumor-free survival (AAD+ SLM2 melanoma cells; T-cells on days 3 and 7 plus IL-2, versus IL-2 only control, tumor-free = tumor size not >30 mm^2): enhanced tumor-free survival
- tumor outgrowth in comparison to control animals (AAD+ SLM2 melanoma cells; control received IL-2 only): delayed outgrowth
- specific killing of peptide-pulsed targets [3]: killed pCDC25b38-46-pulsed but not pIRS-21097-1105 or pβ-catenin30-39-pulsed targets
- recognition (CD107a / IFN-γ) of HLA-A2+ melanoma cell lines MelSwift and 1102Mel [4]: recognized two HLA-A2^+ melanomas
- recognition of HLA-A2+ EBV-transformed lymphoblastoid cell line JY [4]: did recognize
- recognition of HLA-A2neg cancer cells T47D and SK-Mel-28 [4]: did not recognize
- recognition of HLA-A2neg melanoma SK-Mel-28 or HLA-A2+ antigen-low ovarian carcinoma OV-90 [4]: failed to recognize
- level of recognition of cancer cells ([4]; compared with peptide-pulsed targets): relatively low
- HLA-A2+ breast carcinomas recognized [4, 6]: 3/3
- HLA-A2+ colorectal carcinomas recognized [4, 6]: did not recognize
- HLA-A2+ melanomas recognized [4, 6]: 3/4
- HLA-A2+ ovarian carcinomas recognized [4, 6]: did not recognize

B2: pIRS2 BK TCR: second murine TCR specific for the IRS-2 phosphopeptide; α chain SEQ ID NO: 8, β chain SEQ ID NO: 10 (protein, listed as Mus musculus)
alpha: MLLALLPVLGIHFVLRDAQAQSVTQPDARVTVSEGASLQLRCKYSYSGTPYLFWYVQYPRQGLQLLLKYYSGDPVVQGVNGFEAEFIKSNSSFHLRKASVHWSDSAVYFCAVSAGSGGKLTLGAGTRLQVNLDIQNPEPAVYQLKDPRSQDSTLCLFTDFDSQVNVPKTMESGTFIADKTVLDMKAMDSKSNGAIAWSNQTSFTCQDIFKETNATYPSSDVPCDATLTEKSFETDMNLNFQNLSVMGLRILLLKVAGFNLLMTLRLWSS
beta: MGSRLFFVVLILLCAKHMEAAVTQSPRSKVAVTGGKVTLSCHQANNHDYMYWYRQDTGHGLRLIHYSYVADSTEKGDIPDGYKASRPSQENFSLILELASLSQTAVYFCASSDRDNYAEQFFGPGTRLTVLEDLRNVTPPKVSLFEPSKAEIANKQKATLVCLARGFFPDHVELSWWVNGKEVRSGVSTDPQAYKESNYSYCLSSRLRVSATFWHNPRNHFRCQVQFHGLSEEDKWPEGSPKPVTQNISAEAWGRADCGITSASYHQGVLSATILYEILLGKATLYAVLVSGLVLMAMVKKKNS
- recognition of HLA-A2+ targets and effector function (IFN-γ ELISA) [5]: conferred recognition of HLA-A2+ targets and effector function
